Changes are numbered by the printed parent chain. In names and notes the source's numbering stands.
B1: neutralizing monoclonal antibody 8H3 (antibody, V domains shown)
VH: QVQLKESGPGLVAPSQSLSITCTVSGFSLIGYGVNWVRQPPEKGLEWLGMIWGDGSTDYNSALKSRLSITKDNSKSQVFLKMNSLQTDDTARYYCAMGVRPDPFDYWGQGTLVTVSA
VL: NIMMTQSPSSLAVSAGEKVTMSCKSSQSVLYSSNQKNYLAWYQQKPGQSPKLLIYWASARESGVPDRFTGSGSGTDFTLTINSVQTEDLAVYYCHQYLSSYTFGGGTKLEIK
B2: neutralizing monoclonal antibody 8C11 (antibody, V domains shown)
VH: QVTLKESGPGILQPSQTLSLTCSFSGFSLSTSGMGVGWIRQPSGKGLEWLAHIWWDDVKRYSPALKSRLTISKDTSSSQLFLKIASVDTADTATYYCARIKSVITTGDYALDYWGQGTSVAVSS
VL: DIQMTQSPASLSVSVGETVTITCRASEIIYSNLAWYQQKQGKSPQLLVYSATNLAEGVPSRFSGSGSGTQYSLKINSLQSEDFGSYYCQHFWGNPWTFGGGTKLEIK
B3: 8C11 mAb mutant S67A (heavy chain) (antibody, V domains shown)
VH: B2 VH with S67A
VL: B2 VL
B4: 8C11 mAb mutant K66A (heavy chain) (antibody, V domains shown)
VH: B2 VH with K66A
VL: B2 VL
B5: 8C11 mAb mutant D88A (heavy chain) (antibody, V domains shown)
VH: B2 VH with D88A
VL: B2 VL

Key:
Assay in all cases: ELISA
[1] = target: Other eight antigen mutants (E2 mutants preincubated with 8C11)
[2] = target: T1, HEV genotype 1 E2(I) dimer protein (hepatitis E virus genotype 1 (human HEV), UniProt P29326)
HEV genotype 4 E2(IV) = HEV genotype 4 E2(IV) (Hepatitis E virus genotype 4, swine …, UniProt D3VV84, strain)
[3] = target: T1, HEV genotype 1 E2(I) dimer protein; remark: listed apart in the source

Binder	ET50 [2]	binding result (HEV genotype 4 E2(IV))	binding result [3]	further results
B1	4660 dilution fold	binds	–	fold increase in synergy (8H3 binding with 8C11 pre-bound) [1]: 10 fold; ET50 (after a non-related mAb, anti-HPV mAb A12A3) [2]: 3030 dilution fold
B2	172000 dilution fold	binds	–	ET50 (after a non-related mAb) [2]: 188000 dilution fold
B3	–	–	binds	–
B4	–	–	binds	–
B5	–	–	binds	–

Reference: publication PMC11626150 (Proceedings of the National Academy of Sciences of the …, 2024)
